Assay results: patent US20240182592A1 (CHIA TAI TIANQING PHARMACEUTICAL GROUP, published 2024)
Read-outs that look alike come from different tables or passages of the source.

Key:
human BCMA on cells [1] = biological target: T1, human BCMA on cells (human, UniProt Q02223 1-184); assay: cell-based or functional assay
T1 sequence (looked up): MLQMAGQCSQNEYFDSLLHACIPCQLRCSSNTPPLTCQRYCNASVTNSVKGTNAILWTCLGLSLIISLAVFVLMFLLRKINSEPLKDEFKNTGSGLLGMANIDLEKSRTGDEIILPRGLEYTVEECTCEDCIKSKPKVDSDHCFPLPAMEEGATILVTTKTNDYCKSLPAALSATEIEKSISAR

human BCMA on cells [2] = biological target: T1, human BCMA on cells; assay: cell-based or functional assay; remark: listed apart in the source
human BCMA on cells [3] = biological target: T1, human BCMA on cells; assay: cell-based or functional assay; remark: listed apart in the source
human BCMA on cells [4] = biological target: T1, human BCMA on cells; assay: flow cytometry, MM1S cells
Procedure: (§1) NCI-H929 cells (BCMA+++), MM1S cells (BCMA++), and RPMI-8226 cells (BCMA+) in the logarithmic growth phase were taken, adjusted to a cell density of 5×10⁶-10×10⁶ cells/mL using RPMI medium (Hyclon, catalog No. SH30809.01) containing 2% FBS (fetal bovine serum), respectively, and seeded in a 96-well U-bottom cell culture plate (Costar, catalog No. 3799) at 50 μL per well. The test antibodies at different concentrations were prepared using the medium described above. […] The antibodies at different concentrations were added to the 96-well cell culture plate described above at 50 μL per well, mixed well and incubated at 4° C. for 1 h. The cells were washed with pre-cooled running buffer (MACS, catalog No. 130-091-221), and the supernatant was discarded. Pre-cooled fluorescent labeled goat anti-human IgG antibodies (Jackson, catalog No. 109-116-170) were added, and the cells were resuspended at 100 μL per well, mixed well and incubated at 4° C. for 30 min. After washing, 100 μL of pre-cooled running buffer was added to resuspend the cells. The cells were mixed well and collected while flowing on an Attune™ NxT flow cytometer, and the data was analyzed using Graphpad Prism5 software. FIGS. 7-9 and Table 11 show the binding ability of the anti-BCMA/anti-CD3 multispecific antibodies to NCI-H929 cells (BCMA+++), MM1S cells (BCMA++), and RPMI-8226 cells (BCMA+).

human BCMA on cells [5] = biological target: T1, human BCMA on cells; assay: flow cytometry, NCI-H929 cells
Procedure: as §1

T cell surface CD3 = biological target: T2, T cell surface CD3 (human, UniProt P07766 23-207); assay: flow cytometry, human CD3+ T cells
T2 construct: whole, on cells; also called CD3^+ T cells
T2 sequence (P07766 23-207): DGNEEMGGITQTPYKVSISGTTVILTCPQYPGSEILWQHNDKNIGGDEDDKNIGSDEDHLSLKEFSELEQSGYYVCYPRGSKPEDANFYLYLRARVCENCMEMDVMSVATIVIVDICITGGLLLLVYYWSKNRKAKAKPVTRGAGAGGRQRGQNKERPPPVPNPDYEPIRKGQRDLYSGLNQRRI
Procedure: Human PBMC cells were sorted for CD3⁺ T cells using CD3 magnetic beads (Miltenyi, catalog No. 130-097-043): the cryopreserved PBMCs were thawed, and washed by centrifugation twice for counting. Running buffer (MACS, catalog No. 130-091-221) was added in a cell-to-buffer ratio of 10⁷:80 μL, CD3 beads were added in a cell-to-bead ratio of 10⁷:20 μL, and the mixture was mixed well and incubated at 4° C. for 15 min. The cells were washed with buffer in a cell-to-buffer ratio of 10⁷:1-2 mL. After centrifugation, the supernatant was discarded, and 500 μL of buffer was added to resuspend the cell pellet. The LS sorting column (Miltenyi, catalog No. 130-042-401) was placed on the MidiMACS Starting Kit (LS) magnetic rack (Miltenyi, catalog No. 130-091-051). After rinsing, the cell suspension was added and washed thrice. The LS sorting column was removed from the magnetic rack and placed on a clean centrifuge tube and 5 mL buffer was added to collect the sorted CD3⁺ T cells. After counting, the CD3⁺ T cells were adjusted to a cell density of 5×10⁶-10×10⁶ cells/mL using RPMI medium (Hyclone, catalog No. SH30809.01) containing 2% FBS (fetal bovine serum) and seeded in a 96-well U-bottom cell culture plate (Costar, catalog No. 3799) at 50 μL per well. The test antibodies at different concentrations were prepared using the medium described above. […] The antibodies at different concentrations were added to the 96-well cell culture plate described above at 50 μL per well, mixed well and incubated at 4° C. for 1 h. The cells were washed with pre-cooled running buffer (MACS, catalog No. 130-091-221), and the supernatant was discarded. Pre-cooled fluorescent labeled goat anti-human IgG antibodies (Jackson, catalog No. 109-116-170) were added, and the cells were resuspended at 100 μL per well, mixed well and incubated at 4° C. for 30 min. After washing, 100 μL of pre-cooled running buffer was added to resuspend the cells.

human BCMA protein [6] = biological target: T3, human BCMA protein (human, UniProt Q02223 1-54, limits assumed); assay: SPR (Biacore T200), antibody captured by anti-hIgG, human BCMA as analyte, 1:1 model
T3 construct: also called hBCMA; Antigen BCMA
T3 sequence (looked up): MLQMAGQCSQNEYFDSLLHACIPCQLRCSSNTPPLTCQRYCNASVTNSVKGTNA
Procedure: (§2) The affinity of the test antibody for human CD3e or human BCMA protein was determined by Biacore T200 (GE) as follows:
(§3) The response signals were detected in real time using Biacore software, and association and dissociation curves were obtained. The buffer used in the experiment was Biacore universal buffer (137 mM NaCl, 2.7 mM KCl, 10 mM Na₂HPO₄.12H₂O, 1.8 mM KH₂PO₄. 0.05% surfactant P-20 (w/v), pH 7.4). […] The flow rate in the flow cell was at 50 μL/min, the association was performed for 240 s, the dissociation was performed for 1400 s, the regeneration was performed using 3 M MgCl (GE) for 60 s, and the baseline was stable. Results were obtained by calculation according to the affinity and kinetics 1:1 binding mode in biacore evaluation software.

[7] = biological target: T4, human CD3e (Acro, Cat. No. CDE-H5223) (human, UniProt P07766 23-126); assay: SPR (Biacore T200), antibody captured by anti-hIgG, human CD3e as analyte, 1:1 model
T4 construct: also called human CD3e protein; hCD3e
T4 sequence (P07766 23-126 limits assumed): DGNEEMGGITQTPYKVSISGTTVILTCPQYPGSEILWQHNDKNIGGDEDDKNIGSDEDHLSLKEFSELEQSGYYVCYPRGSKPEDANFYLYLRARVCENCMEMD
Procedure: as §2, §3

human BCMA protein [8] = biological target: T3, human BCMA protein; assay: SPR (Biacore T200), antibody captured by anti-hIgG, human BCMA as analyte, 1:1 model; remark: listed apart in the source
Procedure: The affinity of the test antibody for human BCMA protein was determined by Biacore T200 (GE) as follows:
as §3, with “KH₂PO₄,” for “KH₂PO₄.”, “MgCl₂” for “MgCl”

B1: anti-BCMA/anti-CD3 bispecific control antibody Benchmark (bispecific antibody, human IgG1, kappa, L234A L235A)
heavy 1: not shown
light 1: not shown
heavy 2: not shown
light 2: EVQLLESGGGLVQPGGSLRLSCAASGFTFSTYAMNWVRQAPGKGLEWVSRIRSKYNNYATYYADSVKGRFTISRDDSKNTLYLQMNSLRAEDTAVYYCVRHGNFGNSYVSWFAYWGQGTLVTVSSASVAAPSVFIFPPSDEQLKSGTASVVCLLNNFYPREAKVQWKVDNALQSGNSQESVTEQDSKDSTYSLSSTLTLSKADYEKHKVYACEVTHQGLSSPVTKSFNRGEC
notes: Control from Celgene (US20190263920A1): two anti-BCMA Fabs and one anti-CD3 Fab; also called Celgene BM; celgene BM
Lysis EC50, NCI-H929 cells with human PBMCs (E:T 10:1, 24 h, LDH release) (human BCMA on cells [1]): 0.0444 nM | Maximum lysis rate, NCI-H929 cells with human PBMCs (human BCMA on cells [1]): 41% | Lysis EC50, MM1S cells with human PBMCs (E:T 10:1, 24 h, LDH release) (human BCMA on cells [2]): 0.0847 nM | Maximum lysis rate, MM1S cells with human PBMCs (human BCMA on cells [2]): 23% | Lysis EC50, RPMI-8226 cells with human PBMCs (E:T 10:1, 24 h, LDH release) (human BCMA on cells [3]): 0.271 nM | Maximum lysis rate, RPMI-8226 cells with human PBMCs (human BCMA on cells [3]): 29% | EC50 (human BCMA on cells [4]): 0.381 nM | Top(MFI) (human BCMA on cells [4]): 71400 MFI | EC50 (human BCMA on cells [5]): 0.821 nM | Top(MFI) (human BCMA on cells [5]): 166000 MFI | EC50 (T cell surface CD3): 18.1 nM | Top(MFI) (T cell surface CD3): 93500 MFI | Kd (human BCMA protein [6]): 0.821 nM | Kd [7]: 1.6 nM

B2: 1A11-V1 (antibody, human IgG1, V domains shown)
VH: QVQLVESGGGLVQPGGSLRLSCAASGFTFNSACMGWFRQAPGKGREGVSRIETGYGGTVYADSVKGRFTISRDNSKNTVYLQMNSLRAEDTAVYYCAAKRSWCTPTWWHELDYNYWGQGTQVTVSS
notes: Humanized VHH fused to human IgG1 Fc; also called humanized antibody 1A11-V1
Kd (human BCMA protein [8]): 5.05 nM

B3: 1A11-V2 (antibody, human IgG1, V domains shown)
VH: QVQLVESGGGLVQPGGSLRLSCAASGFTFNSACMGWFRQAPGKEREGVSRIETGYGGTVYADSVKGRFTISRDNSKNTVYLQMNSLKAEDTAVYYCAAKRSWCTPTWWHELDYNYWGQGTQVTVSS
notes: Humanized VHH fused to human IgG1 Fc; also called humanized antibody 1A11-V2
Kd (human BCMA protein [8]): 4.37 nM

B4: anti-BCMA/anti-CD3 multispecific antibody PC1 (bispecific antibody, human IgG1)
chain 1: QVQLVESGGGLVQPGGSLRLSCAASGYSSNVACMAWYRQAPGKGLEWVATIVADFGTTNYAASVKGRFTISQDNSKNTVYLQMNSLRAEDTAVYYCAATQRGGIDWCDEINYWGQGTLVTVSSGGGGSGGGGSQVQLVESGGGLVQPGGSLRLSCAASGFTFNSACMGWFRQAPGKGREGVSRIETGYGGTVYADSVKGRFTISRDNSKNTVYLQMNSLRAEDTAVYYCAAKRSWCTPTWWHELDYNYWGQGTQVTVSSGEPKSSDKTHTCPPCPAPEAAGGPSVFLFPPKPKDTLMISRTPEVTCVVVDVSHEDPEVKFNWYVDGVEVHNAKTKPREEQYNSTYRVVSVLTVLHQDWLNGKEYKCKVSNKALAAPIEKTISKAKGQPREPQVCTLPPSREEMTKNQVSLSCAVKGFYPSDIAVEWESNGQPENNYKTTPPVLDSDGSFFLVSKLTVDKSRWQQGNVFSCSVMHEALHNHYTQKSLSLSPGK
chain 2: ELVVTQEPSLTTSPGGTVTLTCRSSTGAVTTSNYANWVQQKPGQAPRGLIGGTNKRAPGTPARFSGSLLGGKAALTITGVQPEDEAEYYCALWYSNLWVFGGGTKLTVLGGGGSGGGGSGGGGSEVQLVESGGGLVQPGGSLRLSCAASGFTFNTYAMNWVRQAPGKGLEWVARIRSKYNNYATYYADSVKDRFTISRDDSKNTAYLQMNNLKTEDTAMYYCVRHGNFGNSYVSWFAYWGQGTLVTVSSGEPKSSDKTHTCPPCPAPEAAGGPSVFLFPPKPKDTLMISRTPEVTCVVVDVSHEDPEVKFNWYVDGVEVHNAKTKPREEQYNSTYRVVSVLTVLHQDWLNGKEYKCKVSNKALAAPIEKTISKAKGQPREPQVYTLPPCREEMTKNQVSLWCLVKGFYPSDIAVEWESNGQPENNYKTTPPVLDSDGSFFLYSKLTVDKSRWQQGNVFSCSVMHEALHNRFTQKSLSLSPGK
notes: Trivalent; two chains; human IgG1 knobs-into-holes Fc
Lysis EC50, NCI-H929 cells with human PBMCs (E:T 10:1, 24 h, LDH release) (human BCMA on cells [1]): 0.0674 nM | Maximum lysis rate, NCI-H929 cells with human PBMCs (human BCMA on cells [1]): 36% | Lysis EC50, MM1S cells with human PBMCs (E:T 10:1, 24 h, LDH release) (human BCMA on cells [2]): 0.0084 nM | Maximum lysis rate, MM1S cells with human PBMCs (human BCMA on cells [2]): 26% | Lysis EC50, RPMI-8226 cells with human PBMCs (E:T 10:1, 24 h, LDH release) (human BCMA on cells [3]): 0.007 nM | Maximum lysis rate, RPMI-8226 cells with human PBMCs (human BCMA on cells [3]): 29% | EC50 (human BCMA on cells [4]): 0.35 nM | Top(MFI) (human BCMA on cells [4]): 100000 MFI | EC50 (human BCMA on cells [5]): 1.26 nM | Top(MFI) (human BCMA on cells [5]): 226000 MFI | EC50 (T cell surface CD3): 485 nM | Top(MFI) (T cell surface CD3): 92900 MFI | Kd (human BCMA protein [6]): 0.0396 nM | Kd [7]: 1.43 nM

B5: 1A10-V1 (antibody, human IgG1, V domains shown)
VH: QVQLVESGGGLVQPGGSLRLSCAASGYSSNVACMAWYRQAPGKGLEWVATIVADFGTTNYAASVKGRFTISQDNSKNTVYLQMNSLRAEDTAVYYCAATQRGGIDWCDEINYWGQGTLVTVSS
notes: Humanized VHH fused to human IgG1 Fc; also called humanized antibody 1A10-V1
Kd (human BCMA protein [8]): 0.337 nM

B6: 1A10-V2 (antibody, human IgG1, V domains shown)
VH: QVQLVESGGGLVQPGGSLRLSCAASGYSSNVACMAWYRQAPGKEREWVSTIVADFGTTNYAASVKGRFTISQDNSKNTVYLQMNSLRAEDTAVYYCAATQRGGIDWCDEINYWGQGTLVTVSS
notes: Humanized VHH fused to human IgG1 Fc; also called humanized antibody 1A10-V2
Kd (human BCMA protein [8]): 1.31 nM
